Values of other authors in PMC4660202.

Target: IZUMO1 ECD (Mus musculus) (UniProt Q9D9J7)
UniProt Q9D9J7, sequence (Q9D9J7 22-319): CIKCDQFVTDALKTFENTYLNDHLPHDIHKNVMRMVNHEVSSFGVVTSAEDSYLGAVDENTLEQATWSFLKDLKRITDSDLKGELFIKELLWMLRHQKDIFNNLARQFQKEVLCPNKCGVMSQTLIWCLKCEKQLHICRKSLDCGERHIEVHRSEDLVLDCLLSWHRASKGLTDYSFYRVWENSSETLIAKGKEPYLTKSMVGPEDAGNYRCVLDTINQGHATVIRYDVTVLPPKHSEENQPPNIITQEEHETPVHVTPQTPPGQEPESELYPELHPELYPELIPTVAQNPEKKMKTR

For JUNO (from UniProt Q9EQF4), the Kd is listed as 12.3 µM.
